{"source": "paper PMC549075", "about": "“HIV-1 Tat protein enhances Microtubule polymerization” (Retrovirology, 2005)", "binders": {"B1": {"name": "HIV-1 Tat protein, HxB2 strain (natural protein)", "chain": "MEPVDPRLEPWKHPGSQPKTACTNCYCKKCCFHCQVCFITKALGISYGRKKRRQRRRAHQNSQTHQASLSKQPTSQPRGDPTGPKE"}}, "key": {"Lamb brain tubulin [1]": {"molecular_target": "Lamb brain tubulin (lamb)", "assay": "cell-based or functional assay"}, "Lamb brain tubulin [2]": {"molecular_target": "Lamb brain tubulin (lamb)", "assay": "cell-based or functional assay", "remark": "listed apart in the source"}}}
{"binder": "B1", "values": [{"measurement": "fold increase of the turbidity plateau over tubulin alone, 4 μM and 8 μM Tat with 15 μM tubulin", "setting": "Lamb brain tubulin [1]", "result": 3.7, "unit": "fold"}, {"measurement": "ΔOD ratio (plateau with 8 μM compound divided by plateau of tubulin alone)", "setting": "Lamb brain tubulin [2]", "result": 3.31}]}
